Biological target: T1, purified mouse serpinB13 (GenScript) (UniProt Q8CDC0)
T1 sequence: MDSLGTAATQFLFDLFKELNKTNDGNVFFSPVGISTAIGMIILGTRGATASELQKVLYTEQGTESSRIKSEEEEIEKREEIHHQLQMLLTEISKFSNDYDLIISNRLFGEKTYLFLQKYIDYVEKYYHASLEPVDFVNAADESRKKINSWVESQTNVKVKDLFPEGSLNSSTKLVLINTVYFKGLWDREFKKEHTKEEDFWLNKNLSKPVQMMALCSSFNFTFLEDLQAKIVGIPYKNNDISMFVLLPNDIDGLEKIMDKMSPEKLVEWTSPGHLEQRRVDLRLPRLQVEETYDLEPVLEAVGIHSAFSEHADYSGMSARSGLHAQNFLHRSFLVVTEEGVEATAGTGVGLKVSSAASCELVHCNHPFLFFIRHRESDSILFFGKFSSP

## Cathepsin L (Calbiochem)
  cleavage of (CBZ-Phe-Arg)2-R110 substrate by cathepsin L in the presence of serpinB13 (fold induction of maximum fluorescence over background): cathepsin L-mediated cleavage of the fluorescent substrate (CBZ-Phe-Arg)2-R110 from inhibition by serpinB13 in vitro

— patent US20150306193
